Data from the supplement of paper PMC11316812.
± gives the standard deviation of the averaged measurements.

What was measured:
[1] = tested on: MCF7; test: percentage of EdU-negative (G0-arrested) nuclei per well, 72 h; higher = more G0 arrest; details: reference: sequence is the full UniProt precursor, the tested protein was the secreted form or ectodomain
[2] = tested on: hTERT-HMEC; test: as above; details: reference: sequence is the full UniProt precursor, the tested protein was the secreted form or ectodomain
[3] = protein concentration 0.02025 µM
[4] = protein concentration 0.2025 µM
[5] = protein concentration 0.0225 µM
[6] = protein concentration 0.00725 µM
[7] = protein concentration 0.0725 µM
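Also: secreted proteins added to cultured cells, EdU pulse at the end, nuclei found by Hoechst imaging, EdU status from nuclear versus surrounding ring intensity ratio, PBS as neutral control.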

Row | Sequence | percentage of EdU-negative [1, 5] | percentage of EdU-negative ([1]; protein concentration 0.225 µM) | percentage of EdU-negative [2, 5] | percentage of EdU-negative ([2]; protein concentration 0.225 µM) | percentage of EdU-negative [1, 6] | percentage of EdU-negative [1, 7] | percentage of EdU-negative [2, 6] | percentage of EdU-negative [2, 7] | other results
1 | MRPLLLLALLGWLLLAEAKGDAKPEDNLLVLTVATKETEGFRRFKRSAQFFNYKIQALGLGEDWNVEKGTSAGGGQKVRLLKKALEKHADKEDLVILFADSYDVLFASGPRELLKKFRQARSQVVFSAEELIYPDRRLETKYPVVSDGKRFLGSGGFIGYAPNLSKLVAEWEGQDSDSDQLFYTKIFLDPEKREQINITLDHRCRIFQNLDGALDEVVLKFEMGHVRARNLAYDTLPVLIHGNGPTKLQLNYLGNYIPRFWTFETGCTVCDEGLRSLKGIGDEALPTVLVGVFIEQPTPFVSLFFQRLLRLHYPQKHMRLFIHNHEQHHKAQVEEFLAQHGSEYQSVKLVGPEVRMANADARNMGADLCRQDRSCTYYFSVDADVALTEPNSLRLLIQQNKNVIAPLMTRHGRLWSNFWGALSADGYYARSEDYVDIVQGRRVGVWNVPYISNIYLIKGSALRGELQSSDLFHHSKLDPDMAFCANIRQQDVFMFLTNRHTLGHLLSLDSYRTTHLHNDLWEVFSNPEDWKEKYIHQNYTKALAGKLVETPCPDVYWFPIFTEVACDELVEEMEHFGQWSLGNNKDNRIQGGYENVPTIDIHMNQIGFEREWHKFLLEYIAPMTEKLYPGYYTRAQFDLAFVVRYKPDEQPSLMPHHDASTFTINIALNRVGVDYEGGGCRFLRYNCSIRAPRKGWTLMHPGRLTHYHEGLPTTRGTRYIAVSFVDP | – | – | – | – | – | – | – | – | percentage of EdU-negative [1, 3]: 27 ± 1.9%; percentage of EdU-negative [1, 4]: 27.54 ± 0.046%; percentage of EdU-negative [2, 3]: 4.5 ± 0.15%; percentage of EdU-negative [2, 4]: 7.829 ± 0.054%
2 | MRPLLVLLLLGLAAGSPPLDDNKIPSLCPGHPGLPGTPGHHGSQGLPGRDGRDGRDGAPGAPGEKGEGGRPGLPGPRGDPGPRGEAGPAGPTGPAGECSVPPRSAFSAKRSESRVPPPSDAPLPFDRVLVNEQGHYDAVTGKFTCQVPGVYYFAVHATVYRASLQFDLVKNGESIASFFQFFGGWPKPASLSGGAMVRLEPEDQVWVQVGVGDYIGIYASIKTDSTFSGFLVYSDWHSSPVFA [Q9BXJ0] | 23.7 ± 0.35% | 24.3 ± 0.42% | 5.51 ± 0.91% | 6.26 ± 0.1% | – | – | – | – | –
3 | MRPPACWWLLAPPALLALLTCSLAFGLASEDTKKEVKQSQDLEKSGISRKNDIDLKGIVFVIQSQSNSFHAKRAEQLKKSILKQAADLTQELPSVLLLHQLAKQEGAWTILPLLPHFSVTYSRNSSWIFFCEEETRIQIPKLLETLRRYDPSKEWFLGKALHDEEATIIHHYAFSENPTVFKYPDFAAGWALSIPLVNKLTKRLKSESLKSDFTIDLKHEIALYIWDKGGGPPLTPVPEFCTNDVDFYCATTFHSFLPLCRKPVKKKDIFVAVKTCKKFHGDRIPIVKQTWESQASLIEYYSDYTENSIPTVDLGIPNTDRGHCGKTFAILERFLNRSQDKTAWLVIVDDDTLISISRLQHLLSCYDSGEPVFLGERYGYGLGTGGYSYITGGGGMVFSREAVRRLLASKCRCYSNDAPDDMVLGMCFSGLGIPVTHSPLFHQARPVDYPKDYLSHQVPISFHKHWNIDPVKVYFTWLAPSDEDKARQETQKGFREEL [Q6Y288] | 23.9 ± 0.6% | 28.2 ± 2.5% | 4.96 ± 0.058% | 9.95 ± 0.45% | – | – | – | – | –
4 | MRPPGFRNFLLLASSLLFAGLSAVPQSFSPSLRSWPGAACRLSRAESERRCRAPGQPPGAALCHGRGRCDCGVCICHVTEPGMFFGPLCECHEWVCETYDGSTCAGHGKCDCGKCKCDQGWYGDACQYPTNCDLTKKKSNQMCKNSQDIICSNAGTCHCGRCKCDNSDGSGLVYGKFCECDDRECIDDETEEICGGHGKCYCGNCYCKAGWHGDKCEFQCDITPWESKRRCTSPDGKICSNRGTCVCGECTCHDVDPTGDWGDIHGDTCECDERDCRAVYDRYSDDFCSGHGQCNCGRCDCKAGWYGKKCEHPQSCTLSAEESIRKCQGSSDLPCSGRGKCECGKCTCYPPGDRRVYGKTCECDDRRCEDLDGVVCGGHGTCSCGRCVCERGWFGKLCQHPRKCNMTEEQSKNLCESADGILCSGKGSCHCGKCICSAEEWYISGEFCDCDDRDCDKHDGLICTGNGICSCGNCECWDGWNGNACEIWLGSEYP | – | – | – | – | 26.1 ± 1.1% | 24.7 ± 1.8% | 4.34 ± 0.65% | 6.33 ± 0.52% | –
5 | MRPPQCLLHTPSLASPLLLLLLWLLGGGVGAEGREDAELLVTVRGGRLRGIRLKTPGGPVSAFLGIPFAEPPMGPRRFLPPEPKQPWSGVVDATTFQSVCYQYVDTLYPGFEGTEMWNPNRELSEDCLYLNVWTPYPRPTSPTPVLVWIYGGGFYSGASSLDVYDGRFLVQAERTVLVSMNYRVGAFGFLALPGSREAPGNVGLLDQRLALQWVQENVAAFGGDPTSVTLFGESAGAASVGMHLLSPPSRGLFHRAVLQSGAPNGPWATVGMGEARRRATQLAHLVGCPPGGTGGNDTELVACLRTRPAQVLVNHEWHVLPQESVFRFSFVPVVDGDFLSDTPEALINAGDFHGLQVLVGVVKDEGSYFLVYGAPGFSKDNESLISRAEFLAGVRVGVPQVSDLAAEAVVLHYTDWLHPEDPARLREALSDVVGDHNVVCPVAQLAGRLAAQGARVYAYVFEHRASTLSWPLWMGVPHGYEIEFIFGIPLDPSRNYTAEEKIFAQRLMRYWANFARTGDPNEPRDPKAPQWPPYTAGAQQYVSLDLRPLEVRRGLRAQACAFWNRFLPKLLSATDTLDEAERQWKAEFHRWSSYMVHWKNQFDHYSKQDRCSDL | – | – | – | – | 25.5 ± 3.2% | 27.8 ± 2.5% | 4.96 ± 0.24% | 8.871 ± 0.06% | –
